What was measured:
[1] = target: Recombinant, his tagged full length human frataxin protein (Abcam ab95502) (human) (UniProt Q16595); experiment: Simoa sandwich 2-step; capture Ab-1; frataxin 100 pg/mL
[2] = target: Recombinant, his tagged full length human frataxin protein (Abcam ab95502) (human) (UniProt Q16595); experiment: Simoa sandwich; capture Ab-1; no helper beads; frataxin 18.5 pg/mL
[3] = target: Recombinant, his tagged full length human frataxin protein (Abcam ab95502) (human) (UniProt Q16595); experiment: Simoa sandwich 3-step; capture Ab-3; frataxin 10000 pg/mL
[4] = target: Recombinant, his tagged full length human frataxin protein (Abcam ab95502) (human) (UniProt Q16595); experiment: Simoa sandwich 3-step; capture Ab-1; frataxin 1000 pg/mL
[5] = target: Recombinant, his tagged full length human frataxin protein (Abcam ab95502) (human) (UniProt Q16595); experiment: Simoa sandwich 2-step; capture Ab-2
[6] = target: Recombinant, his tagged full length human frataxin protein (Abcam ab95502) (human) (UniProt Q16595); experiment: Simoa sandwich 3-step; capture Ab-2
[7] = target: Recombinant, his tagged full length human frataxin protein (Abcam ab95502) (human) (UniProt Q16595); experiment: Simoa sandwich 2-step (120 min-5 min); capture Ab-1; Diluent 1 + 5% NCS; frataxin 2.47 pg/mL
[8] = target: Recombinant, his tagged full length human frataxin protein (Abcam ab95502) (human) (UniProt Q16595); experiment: Simoa sandwich 2-step (120 min-5 min); capture Ab-1; Diluent 1 + 10% NCS; frataxin 1.37 pg/mL
[9] = target: Recombinant, his tagged full length human frataxin protein (Abcam ab95502) (human) (UniProt Q16595); experiment: Simoa sandwich 2-step; capture Ab-2; frataxin 55.6 pg/mL
[10] = target: Recombinant, his tagged full length human frataxin protein (Abcam ab95502) (human) (UniProt Q16595); experiment: Simoa sandwich 2-step (120 min-5 min); capture Ab-1; Diluent 1 + 5% NCS; frataxin 200 pg/mL
[11] = target: Recombinant, his tagged full length human frataxin protein (Abcam ab95502) (human) (UniProt Q16595); experiment: Simoa sandwich 3-step; capture Ab-4
[12] = target: Recombinant, his tagged full length human frataxin protein (Abcam ab95502) (human) (UniProt Q16595); experiment: Simoa sandwich 2-step (120 min-5 min); capture Ab-1; Diluent 1 + 10% NCS; frataxin 0.274 pg/mL
[13] = target: Recombinant, his tagged full length human frataxin protein (Abcam ab95502) (human) (UniProt Q16595); experiment: Simoa sandwich 3-step; capture Ab-3
[14] = target: Recombinant, his tagged full length human frataxin protein (Abcam ab95502) (human) (UniProt Q16595); experiment: Simoa sandwich 2-step (120 min-5 min); capture Ab-1; frataxin 667 pg/mL
[15] = target: Recombinant, his tagged full length human frataxin protein (Abcam ab95502) (human) (UniProt Q16595); experiment: Simoa sandwich 2-step; capture Ab-2; frataxin 2.06 pg/mL
[16] = target: Recombinant, his tagged full length human frataxin protein (Abcam ab95502) (human) (UniProt Q16595); experiment: Simoa sandwich 2-step (120 min-5 min); capture Ab-1; Diluent 1 + 5% NCS; frataxin 111 pg/mL
[17] = target: Recombinant, his tagged full length human frataxin protein (Abcam ab95502) (human) (UniProt Q16595); experiment: Simoa sandwich 2-step (120 min-5 min); capture Ab-1; Diluent 1 + 10% NCS; frataxin 2.47 pg/mL
[18] = target: Recombinant, his tagged full length human frataxin protein (Abcam ab95502) (human) (UniProt Q16595); experiment: Simoa sandwich 3-step; capture Ab-1
[19] = target: Recombinant, his tagged full length human frataxin protein (Abcam ab95502) (human) (UniProt Q16595); experiment: Simoa sandwich 2-step (120 min-5 min); capture Ab-1; Diluent 1 + 5% NCS; frataxin 0.274 pg/mL
[20] = target: Recombinant, his tagged full length human frataxin protein (Abcam ab95502) (human) (UniProt Q16595); experiment: Simoa sandwich 2-step; capture Ab-1; frataxin 167 pg/mL
[21] = target: Recombinant, his tagged full length human frataxin protein (Abcam ab95502) (human) (UniProt Q16595); experiment: Simoa sandwich 2-step (35 min-5 min); capture Ab-1; with helper beads; frataxin 55.6 pg/mL
[22] = target: Recombinant, his tagged full length human frataxin protein (Abcam ab95502) (human) (UniProt Q16595); experiment: Simoa sandwich 2-step; capture Ab-1; frataxin 0.686 pg/mL
[23] = target: Recombinant, his tagged full length human frataxin protein (Abcam ab95502) (human) (UniProt Q16595); experiment: Simoa sandwich 2-step; capture Ab-2; frataxin 167 pg/mL
[24] = target: Recombinant, his tagged full length human frataxin protein (Abcam ab95502) (human) (UniProt Q16595); experiment: Simoa sandwich 2-step; capture Ab-1; 150 pM SβG; frataxin 6.17 pg/mL
[25] = target: Recombinant, his tagged full length human frataxin protein (Abcam ab95502) (human) (UniProt Q16595); experiment: Simoa sandwich 2-step (120 min-5 min); capture Ab-1; Diluent 1 + 10% NCS; frataxin 333 pg/mL
[26] = target: Recombinant, his tagged full length human frataxin protein (Abcam ab95502) (human) (UniProt Q16595); experiment: Simoa sandwich 3-step; capture Ab-2; remark: listed apart in the source

Sequence of UniProt Q16595 (Q16595 42-210): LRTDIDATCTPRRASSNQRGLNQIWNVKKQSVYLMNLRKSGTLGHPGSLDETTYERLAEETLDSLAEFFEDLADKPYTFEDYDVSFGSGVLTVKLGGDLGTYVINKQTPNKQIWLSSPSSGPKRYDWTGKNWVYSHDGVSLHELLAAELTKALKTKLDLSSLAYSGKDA

Substance: Ab-3, mouse monoclonal [18A5DB1] to Frataxin (Abcam ab110328) (antibody)
- Ave AEB [1]: 7.11 AEB
- S/B [1]: 88.8
- AEB Rep1 [2]: 0.363 AEB
- AEB Rep2 [2]: 0.362 AEB
- Ave AEB [2]: 0.363 AEB
- S/B [2]: 16
- Ave AEB [3]: 1.06 AEB
- S/B [3]: 224
- Ave AEB [4]: 19.6 AEB
- S/B [4]: 333
- LOD [5]: 0.27 pg/mL
- LOD [6]: 0.65 pg/mL
- Ave AEB [7]: 0.0609 AEB
- S/B [7]: 3.37
- Ave AEB [8]: 0.0153 AEB
- S/B [8]: 1.42
- Ave AEB [9]: 5.21 AEB
- S/B [9]: 54.6
- Ave AEB [10]: 4.24 AEB
- S/B [10]: 235
- LOD [11]: 1.3 pg/mL
- Ave AEB [12]: 0.023 AEB
- S/B [12]: 1.27
- LOD [13]: 11.9 pg/mL
- AEB rep1 [14]: 3.57 AEB
- AEB rep2 [14]: 3.99 AEB
- AEB rep3 [14]: 3.61 AEB
- Ave AEB [14]: 3.73 AEB
- S/B [14]: 451
- Ave AEB [15]: 0.318 AEB
- S/B [15]: 3.33
- Ave AEB [16]: 1.02 AEB
- S/B [16]: 93.1
- Ave AEB [17]: 0.0444 AEB
- S/B [17]: 2.44
- LOD [18]: 1.14 pg/mL
- Ave AEB [19]: 0.0228 AEB
- S/B [19]: 1.26
- Ave AEB [20]: 15.1 AEB
- S/B [20]: 145
- AEB Rep1 [21]: 3.47 AEB
- AEB Rep2 [21]: 3.28 AEB
- Ave AEB [21]: 3.38 AEB
- S/B [21]: 139
- Ave AEB [22]: 0.165 AEB
- S/B [22]: 1.59
- Ave AEB [23]: 14.1 AEB
- S/B [23]: 148
- Ave AEB [24]: 0.521 AEB
- S/B [24]: 11.6
- Ave AEB [25]: 1.56 AEB
- S/B [25]: 145
- LOD [26]: 1.33 pg/mL
